Where no end group is shown, it is not given here. 5‑Fam = 5-carboxyfluorescein; Ahx = NCCCCCC(=O)O
T1: Human FKBP51 (51-kDa FK506-binding protein) (human, UniProt Q13451 1-457)
T1 sequence (looked up): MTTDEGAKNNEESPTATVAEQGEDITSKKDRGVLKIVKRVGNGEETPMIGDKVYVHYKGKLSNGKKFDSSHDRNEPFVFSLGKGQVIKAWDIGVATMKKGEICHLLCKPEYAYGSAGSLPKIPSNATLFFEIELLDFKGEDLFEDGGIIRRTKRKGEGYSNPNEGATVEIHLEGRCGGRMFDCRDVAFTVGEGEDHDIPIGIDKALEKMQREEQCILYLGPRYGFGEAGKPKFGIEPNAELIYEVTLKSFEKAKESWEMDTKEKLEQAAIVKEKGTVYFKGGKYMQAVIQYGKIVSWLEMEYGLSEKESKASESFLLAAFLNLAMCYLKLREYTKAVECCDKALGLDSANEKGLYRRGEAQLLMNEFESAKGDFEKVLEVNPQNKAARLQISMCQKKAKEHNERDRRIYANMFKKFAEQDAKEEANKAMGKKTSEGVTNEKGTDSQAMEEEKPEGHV

T2: Human FKBP52 (52-kDa FK506-binding protein) (human, UniProt Q02790 1-459)
T2 sequence (looked up): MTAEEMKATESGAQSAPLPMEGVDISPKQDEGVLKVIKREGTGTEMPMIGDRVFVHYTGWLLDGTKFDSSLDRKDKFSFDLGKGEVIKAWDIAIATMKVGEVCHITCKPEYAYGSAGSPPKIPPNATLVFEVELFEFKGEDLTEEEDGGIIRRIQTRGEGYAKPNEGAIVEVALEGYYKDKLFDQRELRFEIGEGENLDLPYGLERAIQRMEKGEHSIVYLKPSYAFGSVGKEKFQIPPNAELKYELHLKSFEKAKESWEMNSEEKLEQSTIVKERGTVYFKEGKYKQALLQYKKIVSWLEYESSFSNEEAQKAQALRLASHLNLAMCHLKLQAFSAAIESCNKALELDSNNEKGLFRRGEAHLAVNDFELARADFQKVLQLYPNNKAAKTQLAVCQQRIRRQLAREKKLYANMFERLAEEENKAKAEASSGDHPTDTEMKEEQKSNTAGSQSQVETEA

B1: Human CHIP (carboxyl terminus of Hsc70 interacting protein) (natural protein, UniProt Q9UNE7 1-303, looked up)
chain: MKGKEEKEGGARLGAGGGSPEKSPSAQELKEQGNRLFVGRKYPEAAACYGRAITRNPLVAVYYTNRALCYLKMQQHEQALADCRRALELDGQSVKAHFFLGQCQLEMESYDEAIANLQRAYSLAKEQRLNFGDDIPSALRIAKKKRWNSIEERRIHQESELHSYLSRLIAAERERELEECQRNHEGDEDDSHVRAQQACIEAKHDKYMADMDELFSQVDEKRKKRDIPDYLCGKISFELMREPCITPSGITYDRKDIEEHLQRVGHFDPVTRSPLTQEQLIPNLAMKEVIDAFISENGWVEDY

Tests used:
Experiment in all cases: fluorescence polarisation
[1] = molecular target: Hop K8A (human, UniProt P31948 1-543, K8A)
[2] = molecular target: T1, Human FKBP51 (51-kDa FK506-binding …)
[3] = molecular target: T2, Human FKBP52 (52-kDa FK506-binding …)
[4] = molecular target: Hop R77A (human, UniProt P31948 1-543, R77A)
[5] = molecular target: Human Hop (Hsp70/Hsp90 organizing protein) (human, UniProt P31948 1-543)
[6] = molecular target: B1
[7] = molecular target: Human Hsp72 (HSPA1A), full-length (human, UniProt P0DMV8 1-641)
Chain of Human Hsp72 (HSPA1A), full-length (P0DMV8 whole entry): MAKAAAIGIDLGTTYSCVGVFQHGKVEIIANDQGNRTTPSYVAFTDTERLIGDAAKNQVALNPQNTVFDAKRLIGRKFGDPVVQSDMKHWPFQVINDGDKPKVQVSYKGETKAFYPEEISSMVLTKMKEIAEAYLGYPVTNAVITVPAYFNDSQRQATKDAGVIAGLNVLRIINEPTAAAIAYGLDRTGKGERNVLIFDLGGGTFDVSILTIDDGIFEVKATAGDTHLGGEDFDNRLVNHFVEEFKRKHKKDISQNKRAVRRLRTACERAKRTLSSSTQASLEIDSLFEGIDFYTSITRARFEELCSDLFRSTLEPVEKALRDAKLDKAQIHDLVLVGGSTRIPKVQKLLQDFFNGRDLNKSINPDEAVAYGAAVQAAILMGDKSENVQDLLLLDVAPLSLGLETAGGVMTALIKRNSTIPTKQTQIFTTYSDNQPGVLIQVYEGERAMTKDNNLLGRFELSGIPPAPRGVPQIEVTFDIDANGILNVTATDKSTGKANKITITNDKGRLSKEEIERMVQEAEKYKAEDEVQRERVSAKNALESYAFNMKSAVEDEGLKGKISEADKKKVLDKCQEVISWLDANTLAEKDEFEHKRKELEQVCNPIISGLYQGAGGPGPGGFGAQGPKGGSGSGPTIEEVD

Row | Binder | Kd [2] [µM] | Kd [3] [µM] | other results
1 | {5‑Fam-Ahx}-SSGPTIEEVD [Hsc70 C-terminal tracer (Fam-SSGPTIEEVD)] | > 75 | > 75 | Kd [1]: > 25 µM; Kd [4]: > 25 µM
2 | {5‑Fam-Ahx}-DDTSRIEEVD [mutant Hsp90α tracer (Fam-DDTSRIEEVD)] | > 25 | > 25 | Kd [5]: > 25 µM
3 | {5‑Fam-Ahx}-DDTSRMEKVD [Hsp90α Lys mutant tracer (Fam-DDTSRMEKVD)] | > 25 | > 25 | –
4 | {5‑Fam-Ahx}-DDTSRMEAVD [Hsp90α Ala mutant tracer (Fam-DDTSRMEAVD)] | 4.63 | – | –
5 | {5‑Fam-Ahx}-GSGPTIEEVD [Hsp72 C-terminal tracer (Fam-GSGPTIEEVD)] | – | > 75 | Kd [6]: 0.51 µM; Kd [1]: > 25 µM; Kd [4]: > 25 µM
6 | {5‑Fam-Ahx}-GSGPTMEEVD [chimeric mutant Hsp72 tracer (Fam-GSGPTMEEVD)] | > 75 | > 75 | –
7 | Human DnaJC7 (natural protein, UniProt Q99615 1-494, looked up) MAAAAECDVVMAATEPELLDDQEAKREAETFKEQGNAYYAKKDYNEAYNYYTKAIDMCPKNASYYGNRAATLMMLGRFREALGDAQQSVRLDDSFVRGHLREGKCHLSLGNAMAACRSFQRALELDHKNAQAQQEFKNANAVMEYEKIAETDFEKRDFRKVVFCMDRALEFAPACHRFKILKAECLAMLGRYPEAQSVASDILRMDSTNADALYVRGLCLYYEDCIEKAVQFFVQALRMAPDHEKACIACRNAKALKAKKEDGNKAFKEGNYKLAYELYTEALGIDPNNIKTNAKLYCNRGTVNSKLRKLDDAIEDCTNAVKLDDTYIKAYLRRAQCYMDTEQYEEAVRDYEKVYQTEKTKEHKQLLKNAQLELKKSKRKDYYKILGVDKNASEDEIKKAYRKRALMHHPDRHSGASAEVQKEEEKKFKEVGEAFTILSDPKKKTRYDSGQDLDEEGMNMGDFDPNNIFKAFFGGPGGFSFEASGPGNFFFQFG | – | – | binding result [7]: binds
8 | B1 | – | – | binding result [7]: binds
